First the molecules themselves.
B1: Tryptophan synthase alpha chain, P00929 (parent)
chain: MERYENLFAQLNDRREGAFVPFVTLGDPGIEQSLKIIDTLIDAGADALELGVPFSDPLADGPTIQNANLRAFAAGVTPAQCFEMLALIREKHPTIPIGLLMYANLVFNNGIDAFYARCEQVGVDSVLVADVPVEESAPFRQAALRHNIAPIFICPPNADDDLLRQVASYGRGYTYLLSRSGVTGAENRGALPLHHLIEKLKEYHAAPALQGFGISSPEQVSAAVRAGAAGAISGSAIVKIIEKNLASPKQMLAELRSFVSAMKAASRA
B2: Colicin-E1, P02978 (parent)
chain: METAVAYYKDGVPYDDKGQVIITLLNGTPDGSGSGGGGGKGGSKSESSAAIHATAKWSTAQLKKTQAEQAARAKAAAEAQAKAKANRDALTQRLKDIVNEALRHNASRTPSATELAHANNAAMQAEDERLRLAKAEEKARKEAEAAEKAFQEAEQRRKEIEREKAETERQLKLAEAEEKRLAALSEEAKAVEIAQKKLSAAQSEVVKMDGEIKTLNSRLSSSIHARDAEMKTLAGKRNELAQASAKYKELDELVKKLSPRANDPLQNRPFFEATRRRVGAGKIREEKQKQVTASETRINRINADITQIQKAISQVSNNRNAGIARVHEAEENLKKAQNNLLNSQIKDAVDATVSFYQTLTEKYGEKYSKMAQELADKSKGKKIGNVNEALAAFEKYKDVLNKKFSKADRDAIFNALASVKYDDWAKHLDQFAKYLKITGHVSFGYDVVSDILKIKDTGDWKPLFLTLEKKAADAGVSYVVALLFSLLAGTTLGIWGIAIVTGILCSYIDKNKLNTINEVLGI

The first data set covers variants of B1. The settings on record: Salmonella typhimurium (strain LT2 / SGSC1412 / ATCC 700720); pH 7.8; Thermal; Enzyme activity; sodium N/N-bis(2-hydroxyethyl)glycine 0.05 M; structure 2WSY; whole UniProt chain shown.
Regarding MERYENLFAQLNDRREGAFVPFVTLGDPGIEQSLKIIDTLIDAGADALELGVPFSDPLADGPTIQNANLRAFAAGVTPAQCFEMLALIREKHPTIPIGLLMYANLVFNNGIDAFYARSEQVGVDSVLVADVPVEESAPFRQAALRHNIAPIFICPPNADDDLLRQVASYGRGYTYLLSRSGVTGAENRGALPLHHLIEKLKEYHAAPALQGFGISSPEQVSAAVRAGAAGAISGSAIVKIIEKNLASPKQMLAELRSFVSAMKAASRA [C118S], the melting temperature (Tm) (usually the temperature at which the thermal transition is half complete) was found to be 41 °C and the “change of melting temperature, mutant - wild type (higher = more stable)” value is -5 °C.

In the next data set the parent is B2. The settings on record: Escherichia coli; pH 6; 22 °C; Urea; Fluorescence; dimethylglutaric acid 10 mM; NaCl 100 mM; reversible: yes; structure 2I88; whole UniProt chain shown.
For METAVAYYKDGVPYDDKGQVIITLLNGTPDGSGSGGGGGKGGSKSESSAAIHATAKWSTAQLKKTQAEQAARAKAAAEAQAKAKANRDALTQRLKDIVNEALRHNASRTPSATELAHANNAAMQAEDERLRLAKAEEKARKEAEAAEKAFQEAEQRRKEIEREKAETERQLKLAEAEEKRLAALSEEAKAVEIAQKKLSAAQSEVVKMDGEIKTLNSRLSSSIHARDAEMKTLAGKRNELAQASAKYKELDELVKKLSPRANDPLQNRPFFEATRRRVGAGKIREEKQKQVTASETRINRINADITQIQKAISQVSNNRNAGIARVHEAEENLKKAQNNLLNSQIKDAVDATVSFYQTLTEKYGEKYSKMAQELADKSKGKKIGNVNEALAAFEKYKDVLNKKFSKADRDAIFNALASVKYDDWAKHLDQWAKYLKITGHVSFGYDVVSDILKIKDTGDWKPLFLTLEKKAADAGVSYVVALLFSLLAGTTLGIWGIAIVTGILCSYIDKNKLNTINEVLGI [F431W], the “denaturant midpoint (higher = more stable)” value (“denaturant midpoint” below) stood at 5.8 M.
Still for that read-out and setting: then METAVAYYKDGVPYDDKGQVIITLLNGTPDGSGSGGGGGKGGSKSESSAAIHATAKWSTAQLKKTQAEQAARAKAAAEAQAKAKANRDALTQRLKDIVNEALRHNASRTPSATELAHANNAAMQAEDERLRLAKAEEKARKEAEAAEKAFQEAEQRRKEIEREKAETERQLKLAEAEEKRLAALSEEAKAVEIAQKKLSAAQSEVVKMDGEIKTLNSRLSSSIHARDAEMKTLAGKRNELAQASAKYKELDELVKKLSPRANDPLQNRPFFEATRRRVGAGKIREEKQKQVTASETRINRINADITQIQKAISQVSNNRNAGIARVHEAEENLKKAQNNLLNSQIKDAVDATVSFYQTLTEKYGEKYSKMAQELADKSKGKKIGNVNEALAAFEKYKDVLNKKWSKADRDAIFNALASVKYDDWAKHLDQFAKYLKITGHVSFGYDVVSDILKIKDTGDWKPLFLTLEKKAADAGVSYVVALLFSLLAGTTLGIWGIAIVTGILCSYIDKNKLNTINEVLGI [F404W], with 4.8 M; and METAVAYYKDGVPYDDKGQVIITLLNGTPDGSGSGGGGGKGGSKSESSAAIHATAKWSTAQLKKTQAEQAARAKAAAEAQAKAKANRDALTQRLKDIVNEALRHNASRTPSATELAHANNAAMQAEDERLRLAKAEEKARKEAEAAEKAFQEAEQRRKEIEREKAETERQLKLAEAEEKRLAALSEEAKAVEIAQKKLSAAQSEVVKMDGEIKTLNSRLSSSIHARDAEMKTLAGKRNELAQASAKYKELDELVKKLSPRANDPLQNRPFFEATRRRVGAGKIREEKQKQVTASETRINRINADITQIQKAISQVSNNRNAGIARVHEAEENLKKAQNNLLNSQIKDAVDATVSFYQTLTEKYGEKWSKMAQELADKSKGKKIGNVNEALAAFEKYKDVLNKKFSKADRDAIFNALASVKYDDWAKHLDQFAKYLKITGHVSFGYDVVSDILKIKDTGDWKPLFLTLEKKAADAGVSYVVALLFSLLAGTTLGIWGIAIVTGILCSYIDKNKLNTINEVLGI [Y367W], with 4.9 M.
On the same count and under the same terms, then METAVAYYKDGVPYDDKGQVIITLLNGTPDGSGSGGGGGKGGSKSESSAAIHATAKWSTAQLKKTQAEQAARAKAAAEAQAKAKANRDALTQRLKDIVNEALRHNASRTPSATELAHANNAAMQAEDERLRLAKAEEKARKEAEAAEKAFQEAEQRRKEIEREKAETERQLKLAEAEEKRLAALSEEAKAVEIAQKKLSAAQSEVVKMDGEIKTLNSRLSSSIHARDAEMKTLAGKRNELAQASAKYKELDELVKKLSPRANDPLQNRPFFEATRRRVGAGKIREEKQKQVTASETRINRINADITQIQKAISQVSNNRNAGIARVHEAEENLKKAQNNLLNSQIKDAVDATVSFYQTLTEKYGEKYSKMAQELADKSKGKKIGNVNEALAAFEKYKDVLNKKFSKADRDAIFNALASVKYDDWAKHLDQFAKYLKITGHVSWGYDVVSDILKIKDTGDWKPLFLTLEKKAADAGVSYVVALLFSLLAGTTLGIWGIAIVTGILCSYIDKNKLNTINEVLGI [F443W], with 5.5 M.
Regarding METAVAYYKDGVPYDDKGQVIITLLNGTPDGSGSGGGGGKGGSKSESSAAIHATAKWSTAQLKKTQAEQAARAKAAAEAQAKAKANRDALTQRLKDIVNEALRHNASRTPSATELAHANNAAMQAEDERLRLAKAEEKARKEAEAAEKAFQEAEQRRKEIEREKAETERQLKLAEAEEKRLAALSEEAKAVEIAQKKLSAAQSEVVKMDGEIKTLNSRLSSSIHARDAEMKTLAGKRNELAQASAKYKELDELVKKLSPRANDPLQNRPFFEATRRRVGAGKIREEKQKQVTASETRINRINADITQIQKAISQVSNNRNAGIARVHEAEENLKKAQNNLLNSQIKDAVDATVSFYQTLTEKYGEKYSKMAQELADKSKGKKIGNVNEALAAFEKYKDVLNKKFSKADRDAIFNALASVKYDDWAKHLDQFAKYLKITGHVSFGYDVVSDILKIKDTGDWKPLFLTLEKKAADAGVSYVVALLWSLLAGTTLGIWGIAIVTGILCSYIDKNKLNTINEVLGI [F484W], the “denaturant midpoint” value was 4.6 M.
As for METAVAYYKDGVPYDDKGQVIITLLNGTPDGSGSGGGGGKGGSKSESSAAIHATAKWSTAQLKKTQAEQAARAKAAAEAQAKAKANRDALTQRLKDIVNEALRHNASRTPSATELAHANNAAMQAEDERLRLAKAEEKARKEAEAAEKAFQEAEQRRKEIEREKAETERQLKLAEAEEKRLAALSEEAKAVEIAQKKLSAAQSEVVKMDGEIKTLNSRLSSSIHARDAEMKTLAGKRNELAQASAKYKELDELVKKLSPRANDPLQNRPFFEATRRRVGAGKIREEKQKQVTASETRINRINADITQIQKAISQVSNNRNAGIARVHEAEENLKKAQNNLLNSQIKDAVDATVSFYQTLTEKYGEKYSKMAQELADKSKGKKIGNVNEALAAFEKYKDVLNKKFSKADRDAIFNALASVKYDDWAKHLDQFAKYLKITGHVSFGYDVVSDILKIKDTGDFKPLFLTLEKKAADAGVSYVVALLFSLLAGTTLGIFGIAIVTGILCSYIDKNKLNTINEVLGI [W460F W495F], the “denaturant midpoint” value turned out to be 6.1 M.
Still for that read-out and setting: next, METAVAYYKDGVPYDDKGQVIITLLNGTPDGSGSGGGGGKGGSKSESSAAIHATAKWSTAQLKKTQAEQAARAKAAAEAQAKAKANRDALTQRLKDIVNEALRHNASRTPSATELAHANNAAMQAEDERLRLAKAEEKARKEAEAAEKAFQEAEQRRKEIEREKAETERQLKLAEAEEKRLAALSEEAKAVEIAQKKLSAAQSEVVKMDGEIKTLNSRLSSSIHARDAEMKTLAGKRNELAQASAKYKELDELVKKLSPRANDPLQNRPFFEATRRRVGAGKIREEKQKQVTASETRINRINADITQIQKAISQVSNNRNAGIARVHEAEENLKKAQNNLLNSQIKDAVDATVSFYQTLTEKYGEKYSKMAQELADKSKGKKIGNVNEALAAFEKYKDVLNKKFSKADRDAIFNALASVKYDDFAKHLDQFAKYLKITGHVSFGYDVVSDILKIKDTGDWKPLFLTLEKKAADAGVSYVVALLFSLLAGTTLGIFGIAIVTGILCSYIDKNKLNTINEVLGI [W424F W495F]: 6.1 M; METAVAYYKDGVPYDDKGQVIITLLNGTPDGSGSGGGGGKGGSKSESSAAIHATAKWSTAQLKKTQAEQAARAKAAAEAQAKAKANRDALTQRLKDIVNEALRHNASRTPSATELAHANNAAMQAEDERLRLAKAEEKARKEAEAAEKAFQEAEQRRKEIEREKAETERQLKLAEAEEKRLAALSEEAKAVEIAQKKLSAAQSEVVKMDGEIKTLNSRLSSSIHARDAEMKTLAGKRNELAQASAKYKELDELVKKLSPRANDPLQNRPFFEATRRRVGAGKIREEKQKQVTASETRINRINADITQIQKAISQVSNNRNAGIARVHEAEENLKKAQNNLLNSQIKDAVDATVSFYQTLTEKYGEKYSKMAQELADKSKGKKIGNVNEALAAFEKYKDVLNKKFSKADRDAIWNALASVKYDDWAKHLDQFAKYLKITGHVSFGYDVVSDILKIKDTGDWKPLFLTLEKKAADAGVSYVVALLFSLLAGTTLGIWGIAIVTGILCSYIDKNKLNTINEVLGI [F413W]: 5.7 M.
Still for that read-out and setting: next, METAVAYYKDGVPYDDKGQVIITLLNGTPDGSGSGGGGGKGGSKSESSAAIHATAKWSTAQLKKTQAEQAARAKAAAEAQAKAKANRDALTQRLKDIVNEALRHNASRTPSATELAHANNAAMQAEDERLRLAKAEEKARKEAEAAEKAFQEAEQRRKEIEREKAETERQLKLAEAEEKRLAALSEEAKAVEIAQKKLSAAQSEVVKMDGEIKTLNSRLSSSIHARDAEMKTLAGKRNELAQASAKYKELDELVKKLSPRANDPLQNRPFFEATRRRVGAGKIREEKQKQVTASETRINRINADITQIQKAISQVSNNRNAGIARVHEAEENLKKAQNNLLNSQIKDAVDATVSFYQTLTEKYGEKYSKMAQELADKSKGKKIGNVNEALAAFEKYKDVLNKKFSKADRDAIFNALASVKYDDWAKHLDQFAKYLKITGHVSFGYDVVSDILKIKDTGDWKPLFLTLEKKAADAGVSYVVALLFSLLAGTTLGIWGIAIVTGILCSWIDKNKLNTINEVLGI [Y507W]: 5.7 M.
Still for that read-out and setting: next, METAVAYYKDGVPYDDKGQVIITLLNGTPDGSGSGGGGGKGGSKSESSAAIHATAKWSTAQLKKTQAEQAARAKAAAEAQAKAKANRDALTQRLKDIVNEALRHNASRTPSATELAHANNAAMQAEDERLRLAKAEEKARKEAEAAEKAFQEAEQRRKEIEREKAETERQLKLAEAEEKRLAALSEEAKAVEIAQKKLSAAQSEVVKMDGEIKTLNSRLSSSIHARDAEMKTLAGKRNELAQASAKYKELDELVKKLSPRANDPLQNRPFFEATRRRVGAGKIREEKQKQVTASETRINRINADITQIQKAISQVSNNRNAGIARVHEAEENLKKAQNNLLNSQIKDAVDATVSFYQTLTEKYGEKYSKMAQELADKSKGKKIGNVNEALAAFEKYKDVLNKKFSKADRDAIFNALASVKYDDFAKHLDQFAKYLKITGHVSFGYDVVSDILKIKDTGDFKPLFLTLEKKAADAGVSYVVALLFSLLAGTTLGIWGIAIVTGILCSYIDKNKLNTINEVLGI [W424F W460F]: 5.3 M; METAVAYYKDGVPYDDKGQVIITLLNGTPDGSGSGGGGGKGGSKSESSAAIHATAKWSTAQLKKTQAEQAARAKAAAEAQAKAKANRDALTQRLKDIVNEALRHNASRTPSATELAHANNAAMQAEDERLRLAKAEEKARKEAEAAEKAFQEAEQRRKEIEREKAETERQLKLAEAEEKRLAALSEEAKAVEIAQKKLSAAQSEVVKMDGEIKTLNSRLSSSIHARDAEMKTLAGKRNELAQASAKYKELDELVKKLSPRANDPLQNRPFFEATRRRVGAGKIREEKQKQVTASETRINRINADITQIQKAISQVSNNRNAGIARVHEAEENLKKAQNNLLNSQIKDAVDATVSTYQTLTEKYGEKYSKMAQELADKSKGKKIGNVNEALAAFEKYKDVLNKKFSKADRDAIFNALASVKYDDWAKHLDQFAKYLKITGHVSFGYDVVSDILKIKDTGDWKPLFLTLEKKAADAGVSYVVALLFSLLAGTTLGIWGIAIVTGILCSYIDKNKLNTINEVLGI [F355T]: 4.9 M.

Values taken from FireProtDB.
